Results: PMC7602980
pKd: −log10 of the molar value.

Tests used:
[1] = target: Cx43CT CT (Rattus norvegicus) (UniProt P08050); settings: cited from earlier work
Cx43CT_(236-382) (rat) = Cx43CT_(236-382) (rat) (UniProt P08050)

Drebrin, sequence (Q16643 2-649): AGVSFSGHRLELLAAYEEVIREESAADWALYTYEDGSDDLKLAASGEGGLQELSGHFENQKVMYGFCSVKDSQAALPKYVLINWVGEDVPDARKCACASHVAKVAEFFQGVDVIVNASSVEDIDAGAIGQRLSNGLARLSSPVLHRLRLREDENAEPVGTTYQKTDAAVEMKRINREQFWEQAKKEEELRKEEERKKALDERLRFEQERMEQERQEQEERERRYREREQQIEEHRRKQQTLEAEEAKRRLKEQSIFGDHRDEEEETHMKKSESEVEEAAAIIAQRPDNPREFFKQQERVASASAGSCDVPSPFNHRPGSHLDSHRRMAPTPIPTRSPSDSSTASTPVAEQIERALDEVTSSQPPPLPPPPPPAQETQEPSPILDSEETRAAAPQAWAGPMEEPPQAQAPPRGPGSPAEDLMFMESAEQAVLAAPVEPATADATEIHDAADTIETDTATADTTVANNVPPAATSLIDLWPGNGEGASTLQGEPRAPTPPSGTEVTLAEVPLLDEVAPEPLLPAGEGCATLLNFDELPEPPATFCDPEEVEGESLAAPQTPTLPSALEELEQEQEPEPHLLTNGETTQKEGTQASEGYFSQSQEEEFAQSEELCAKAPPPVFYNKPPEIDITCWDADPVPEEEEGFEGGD

inhibition of ERK2 phosphorylation of GST-Cx43CT (236-382) (in vitro kinase assay, Western blot with Cx43 pS279/S282 antibodies) in presence of CaM (~90% saturation) (Cx43CT_(236-382) (rat)) [%] | inhibition of Src phosphorylation of GST-Cx43CT (236-382) (in vitro kinase assay, Western blot with Cx43 pY265 antibody) in presence of CaM (~90% saturation) (Cx43CT_(236-382) (rat)) [%] | Substance | pKd [1]
 |  | Drebrin (from UniProt Q16643) | 3.52
30 | 90 | calmodulin (from UniProt P0DP23 1-149) (natural protein) | 
